Values of other authors as cited in PMC10935306.

Biological target: Ship2 Sam (Homo sapiens) (UniProt O15357)
Chain of UniProt O15357 (O15357 1193-1258): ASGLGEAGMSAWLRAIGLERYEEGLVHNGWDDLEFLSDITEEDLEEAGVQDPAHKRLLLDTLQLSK

Kd: 0.75 µM
Substance: EphA2 Sam (from UniProt P29317)
